# Laboratory results published in the Human Domainome abundance scans (Beltran et al. 2025).
# ± gives the uncertainty stated by the source.
# B1: Peripheral plasma membrane protein CASK, residues 488 to 569; numbered along this chain, O14936 (parent)
# chain: VRLVQFQKNTDEPMGITLKMNELNHCIVARIMHGGMIHRQGTLHVGDEIREINGISVANQTVEQLQKMLREMRGSITFKIVP
# Variants of: B1
# Test: abundance fitness (aPCA) (normalised: wild type 0, dead -1); higher = more abundant; growth selection in yeast, the domain comes from the species named
# Details: Homo sapiens
row,Variant,abundance fitness
1,I49N,-0.804 ± 0.2
2,I49K,-0.823 ± 0.16
3,I49S,-0.886 ± 0.12
4,K79M,-0.133 ± 0.044
5,K79Y,-0.415 ± 0.054
6,K79C,-0.053 ± 0.054
7,K79E,-0.113 ± 0.066
8,K79W,-0.572 ± 0.084
9,R73S,0.025 ± 0.025
10,R73A,-0.082 ± 0.025
11,R73D,-0.002 ± 0.041
12,T77K,-0.041 ± 0.057
13,T77S,-0.002 ± 0.035
14,T77E,-0.034 ± 0.059
15,T77W,-0.014 ± 0.048
16,T77R,-0.088 ± 0.035
17,T77V,-0.103 ± 0.046
18,T77A,-0.028 ± 0.039
19,I31N,-0.71 ± 0.14
20,I31L,-0.058 ± 0.032
21,I31Q,-1.04 ± 0.13
22,H44Y,-0.075 ± 0.051
23,H44Q,-0.006 ± 0.03
24,H44D,-0.021 ± 0.031

row,Variant,abundance fitness
1,M36A,0.039 ± 0.039
2,M36C,-0.07 ± 0.058
3,M36G,-0.05 ± 0.029
4,M36P,0.095 ± 0.048
5,M36S,0.049 ± 0.038
6,M20A,-0.128 ± 0.032
7,M20V,-0.046 ± 0.03
8,M20T,-0.088 ± 0.04
9,M20W,-0.044 ± 0.032
10,M20D,-0.489 ± 0.068
11,I80A,-0.468 ± 0.053
12,I80M,-0.169 ± 0.046
13,I80K,-0.802 ± 0.15
14,G35V,-0.485 ± 0.031
15,G35H,-0.068 ± 0.057
16,G35E,-0.187 ± 0.029
17,G35F,-0.243 ± 0.057
18,R39A,-0.035 ± 0.022
19,R39G,-0.136 ± 0.019
20,R39H,-0.118 ± 0.043
21,R39I,-0.297 ± 0.04
22,R39M,-0.135 ± 0.033
23,R39N,0.04 ± 0.037
24,M14R,-0.858 ± 0.078

row,Variant,abundance fitness
1,M14F,-0.01 ± 0.04
2,M14W,-0.042 ± 0.05
3,M14K,-0.784 ± 0.1
4,Q40C,-0.072 ± 0.029
5,Q40S,-0.043 ± 0.023
6,Q40H,-0.096 ± 0.041
7,K19Y,-0.01 ± 0.041
8,K19G,0.025 ± 0.023
9,K19E,-0.029 ± 0.037
10,K19P,-0.999 ± 0.1
11,K19H,-0.01 ± 0.04
12,V57I,0.007 ± 0.063
13,V57N,-0.809 ± 0.11
14,V57S,-0.158 ± 0.025
15,V57P,-0.041 ± 0.027
16,V57G,-0.758 ± 0.028
17,R70S,-0.015 ± 0.023
18,R70V,-0.018 ± 0.023
19,R70A,0.012 ± 0.024
20,K8Q,0.004 ± 0.031
21,K8D,-0.403 ± 0.045
22,K8T,-0.179 ± 0.032
23,K8L,-0.028 ± 0.024
24,M32P,-0.109 ± 0.051

row,Variant,abundance fitness
1,T17Q,-0.001 ± 0.029
2,T17R,-0.031 ± 0.021
3,T17F,-0.071 ± 0.045
4,N21H,-0.25 ± 0.038
5,N21Q,-0.226 ± 0.034
6,N21W,-0.6 ± 0.044
7,N21G,-0.186 ± 0.026
8,S75G,0.001 ± 0.021
9,S75F,-0.037 ± 0.043
10,S75C,-0.011 ± 0.036
11,S75A,0.04 ± 0.027
12,S75I,-0.116 ± 0.046
13,S75D,0.033 ± 0.037
14,S75L,0.034 ± 0.03
15,I27S,-0.17 ± 0.024
16,I27R,-0.227 ± 0.022
17,I16A,-0.115 ± 0.035
18,I16P,-0.765 ± 0.13
19,I16Q,-0.849 ± 0.12
20,I16C,-0.143 ± 0.058
21,L3P,-0.322 ± 0.044
22,L3Y,-0.015 ± 0.043
23,L3W,-0.113 ± 0.026
24,L3K,-0.026 ± 0.034

row,Variant,abundance fitness
1,L3C,-0.198 ± 0.038
2,H33S,-0.008 ± 0.029
3,H33E,0.066 ± 0.033
4,A58I,0.02 ± 0.053
5,A58W,-0.104 ± 0.028
6,A58M,-0.038 ± 0.041
7,A58G,-0.01 ± 0.021
8,N53H,-0.7 ± 0.13
9,N53G,-0.188 ± 0.03
10,N53R,-0.529 ± 0.043
11,N24K,-0.032 ± 0.029
12,N24L,-0.427 ± 0.026
13,N24T,-0.265 ± 0.03
14,N24P,-0.922 ± 0.066
15,N24R,-0.064 ± 0.02
16,N24V,-0.7 ± 0.034
17,G34L,-0.261 ± 0.042
18,Q64T,-0.025 ± 0.027
19,Q64D,0.007 ± 0.039
20,Q64M,-0.042 ± 0.028
21,Q64W,-0.093 ± 0.026
22,Q64C,-0.004 ± 0.028
23,Q64N,-0.025 ± 0.043
24,P13D,-0.028 ± 0.085

row,Variant,abundance fitness
1,P13V,-0.046 ± 0.052
2,P13K,0.055 ± 0.07
3,P13W,-0.102 ± 0.098
4,P13R,-0.183 ± 0.046
5,P13L,-0.125 ± 0.04
6,P13A,-0.065 ± 0.07
7,D11N,0.08 ± 0.05
8,D11P,-0.069 ± 0.043
9,D11T,0.055 ± 0.049
10,D11W,-0.175 ± 0.038
11,D11Q,0.021 ± 0.05
12,E48W,-0.059 ± 0.036
13,E48V,-0.06 ± 0.033
14,E48Q,-0.069 ± 0.051
15,F6Q,-0.589 ± 0.049
16,F6M,0.052 ± 0.027
17,F6V,0.061 ± 0.022
18,T10D,-0.026 ± 0.057
19,T10I,-0.081 ± 0.06
20,T10K,-0.029 ± 0.04
21,E22L,-0.135 ± 0.032
22,E22D,0.031 ± 0.036
23,E22T,-0.021 ± 0.038
24,E22Q,0.008 ± 0.039

row,Variant,abundance fitness
1,E22S,-0.022 ± 0.031
2,E63T,-0.109 ± 0.03
3,E63Q,-0.009 ± 0.032
4,E63G,-0.027 ± 0.02
5,E63L,-0.092 ± 0.026
6,E63S,-0.035 ± 0.028
7,E63N,-0.043 ± 0.065
8,K67N,0.003 ± 0.057
9,K67P,-0.292 ± 0.04
10,K67F,-0.023 ± 0.052
11,K67V,0.002 ± 0.026
12,Q5K,0.128 ± 0.03
13,Q5E,0.149 ± 0.027
14,Q5M,0.065 ± 0.029
15,Q5D,-0.038 ± 0.034
16,Q5I,-0.068 ± 0.03
17,Q5H,-0.049 ± 0.033
18,M72W,-0.047 ± 0.024
19,M72Y,-0.055 ± 0.041
20,M72V,-0.008 ± 0.023
21,M72A,0.022 ± 0.024
22,M72N,-0.114 ± 0.046
23,R30H,0.037 ± 0.057
